Laboratory results taken from patent US20250304636.

Tests used:
[1] = tested on: DAP12 mutant P17
[2] = tested on: DAP12 mutant P23
[3] = tested on: DAP12 mutant P19
Sequence of DAP12 mutant P19 (chain, as listed by the source mutant): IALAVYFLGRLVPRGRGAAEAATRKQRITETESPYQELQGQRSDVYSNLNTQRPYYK

Sequence of DAP12 mutant P17 (chain, as listed by the source mutant): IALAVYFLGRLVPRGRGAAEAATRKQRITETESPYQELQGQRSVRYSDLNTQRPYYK
Sequence of DAP12 mutant P23 (chain, as listed by the source mutant): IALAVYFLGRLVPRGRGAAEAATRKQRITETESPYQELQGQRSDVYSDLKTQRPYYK

Substance: Syk
- tyrosine phosphorylation of Syk (IP of Syk, western blot with pan-phospho-tyrosine antibody 4G10) [1]: P17, P19 and P23 were able to induce tyrosine phosphorylation of Syk
- tyrosine phosphorylation of Syk (IP of Syk, western blot with pan-phospho-tyrosine antibody 4G10) [2]: P17, P19 and P23 were able to induce tyrosine phosphorylation of Syk
- tyrosine phosphorylation of Syk (IP of Syk, western blot with pan-phospho-tyrosine antibody 4G10) [3]: P17, P19 and P23 were able to induce tyrosine phosphorylation of Syk
